In data set [1] the test system is T1, Dn29 large serine recombinase (Desulfotomaculum nigrificans).
T1 sequence: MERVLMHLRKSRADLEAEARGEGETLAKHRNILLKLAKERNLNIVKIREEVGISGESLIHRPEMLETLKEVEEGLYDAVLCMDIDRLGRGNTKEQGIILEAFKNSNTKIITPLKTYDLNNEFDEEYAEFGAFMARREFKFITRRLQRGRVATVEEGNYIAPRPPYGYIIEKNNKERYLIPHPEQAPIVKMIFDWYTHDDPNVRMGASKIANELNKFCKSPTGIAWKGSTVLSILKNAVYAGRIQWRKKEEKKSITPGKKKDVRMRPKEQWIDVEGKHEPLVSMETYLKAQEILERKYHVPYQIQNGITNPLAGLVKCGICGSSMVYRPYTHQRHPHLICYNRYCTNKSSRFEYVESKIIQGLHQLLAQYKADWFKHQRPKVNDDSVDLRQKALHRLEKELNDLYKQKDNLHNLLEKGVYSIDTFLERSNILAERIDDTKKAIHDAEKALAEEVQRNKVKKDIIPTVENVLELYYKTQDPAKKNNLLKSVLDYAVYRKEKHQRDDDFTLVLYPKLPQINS
Kind of data set: cell_activity. The following applies: HEK293FT, unfused LSR, UMI integration-site mapping.

In data set [2] the target is Dn29-XTEN32-(GGSS)2-dCas9 fusion (synthetic construct) (UniProt Q99ZW2). Kind of data set: cell_activity. The conditions noted are these: HEK293FT, attD donor plasmid, single gRNA near attH1, ddPCR; specificity about 78% of UMIs with guide 3.

Where only a bound is given, the exact number is not on record here.

In the case of “Dn29 attH1 pseudosite (chr10:21,130,404, NEBL intron)”, the activity (% of integrations at site) in data set [1] was 30. The substance also yielded an activity (% integration) in data set [2] below 30.

Values taken from patent US20260185069.
